The target of assay [1] is inter-α-inhibitor (IαI) (human) (UniProt P02760). Put plainly: cell-based or functional assay.
The target is the same in assay [2].

UniProt P02760, sequence (P02760 206-352): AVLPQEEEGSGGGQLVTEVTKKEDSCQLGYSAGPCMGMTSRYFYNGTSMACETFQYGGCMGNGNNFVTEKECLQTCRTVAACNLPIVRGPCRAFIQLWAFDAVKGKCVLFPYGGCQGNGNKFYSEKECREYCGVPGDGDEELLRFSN

For the substance “TNF-stimulated gene 6 protein (TSG-6), recombinant (from UniProt P98066 18-277)”, in assay [1], the HC transfer to Cov-HA in the presence of 50 nM TSG-6, plasma dilution series was 200 pM; the decrease in HC transfer to Cov-HA in the presence of 50 nM TSG-6, plasma dilution 1:4000 was 50%; the transfer of HCs from IαI in human plasma (1:1000) to Cov-HA, detected with anti-HC antibody was determined as 16 µM. In assay [2], this substance showed an EC50 (read off the curve): TSG-6 concentration for half-maximal HC transfer from plasma IαI (1:1000) to Cov-HA of 0.4 nM.
